From PMC10671326, “In Vivo and In Vitro Characterization of the RNA Binding Capacity of SETD1A (KMT2F)”
“And” between values parts separate entries of the source, which are not always exact repeats. Equal values may be shown once.

How the values were obtained:
[1] = biological target: T1, SETD1A RRM domain (human, UniProt O15047 89-197); test: MST; details: EMSA: 2 nM biotinylated RNA, LightShift RNA EMSA kit protocol, 30 min room temperature, 6% native PAGE in 0.5x TBE; MST: 40% MST power, LED 20-40%, buffer and …
T1 sequence (O15047 89-197): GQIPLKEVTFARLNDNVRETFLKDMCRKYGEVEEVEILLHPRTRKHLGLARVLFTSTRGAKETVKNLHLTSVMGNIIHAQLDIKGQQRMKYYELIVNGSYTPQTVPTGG

[2] = biological target: T1, SETD1A RRM domain; test: MST; T-jump; EMSA: 2 nM biotinylated RNA, LightShift RNA EMSA kit protocol, 30 min room temperature, 6% native PAGE in 0.5x TBE; MST: 40% MST power, LED 20-40%, buffer and temperature not in material; details: protein: recombinant; tags: His (pET28-MHL vector, HisTrap purified); label: uniformly labeled (MST)
[3] = biological target: T1, SETD1A RRM domain; test: MST; back diffusion; EMSA: 2 nM biotinylated RNA, LightShift RNA EMSA kit protocol, 30 min room temperature, 6% native PAGE in 0.5x TBE; MST: 40% MST power, LED 20-40%, buffer and temperature not in material; details: protein: recombinant; tags: His (pET28-MHL vector, HisTrap purified); label: uniformly labeled (MST)
[4] = biological target: T1, SETD1A RRM domain; test: MST; thermophoresis; EMSA: 2 nM biotinylated RNA, LightShift RNA EMSA kit protocol, 30 min room temperature, 6% native PAGE in 0.5x TBE; MST: 40% MST power, LED 20-40%, buffer and temperature not in material; details: protein: recombinant; tags: His (pET28-MHL vector, HisTrap purified); label: uniformly labeled (MST)

Row | Molecule | Kd [1] | further results
1 | NEAT1_2 (12_13k segment) | 1520 nM and 1890 nM and 1110 nM | 
2 | SCARNA7 | 1280 nM and 310 nM and 1170 nM | 
3 | SETD1A mRNA (N-terminal half coding region) | 210 nM and 60 nM | 
4 | SETD1B mRNA (RRM coding region) | 310 nM | 
5 | SNHG8 | 870 nM and 2190 nM and 1190 nM | 
6 | TP53TG1 | 670 nM and 690 nM and 1050 nM | 
7 | AAGAAUGGCCUCGCGGAGGCAUGCGUCAUGCUAGCGUGCGGGGUACUCUU (ssRNA) [Random50 (R50)] |  | Kd [2]: 15500 nM; Kd [3]: 11800 nM; Kd [4]: 28100 nM
